According to patent US20120156193A1:

Target: A beta 1-40 oligomer (synthetic A beta1-40, HCl form, 0.1 mg/ml in PBS, incubated at 37 degrees C for one hour) (UniProt P05067)
Assay: SPR, Biacore 3000, A beta oligomer on CM5 chip, antibody as analyte

Substance: Anti-A beta antibody 6E10 (Covance Immuno-Technologies)
- Kd: 2.91 nM
- koff: 0.000168 s⁻¹
- kon: 57800 M⁻¹ s⁻¹
